Results reported in patent US20090291890A1 (published 2009).
Several values for one entry are separate records, joined by “and”; a condition that tells them apart may be missing. Equal values may be shown once.

T1: Mesyl-dFPR-ACC
T1 sequence (peptide, N-terminal mesyl; D-Phe at position 1 (dF); C-terminal ACC fluorophore): FPR

B1: FVIIa variant Q286R/Q366V (enzyme)
chain: ANAFLEELRPGSLERECKEEQCSFEEAREIFKDAERTKLFWISYSDGDQCASSPCQNGGSCKDQLQSYICFCLPAFEGRNCETHKDDQLICVNENGGCEQYCSDHTGTKRSCRCHEGYSLLADGVSCTPTVEYPCGKIPILEKRNASKPQGRIVGGKVCPKGECPWQVLLLVNGAQLCGGTLINTIWVVSAAHCFDKIKNWRNLIAVLGEHDLSEHDGDEQSRRVAQVIIPSTYVPGTTNHDIALLRLHQPVVLTDHVVPLCLPERTFSERTLAFVRFSLVSGWGRLLDRGATALELMVLNVPRLMTQDCLQQSRKVGDSPNITEYMFCAGYSDGSKDSCKGDSGGPHATHYRGTWYLTGIVSWGVGCATVGHFGVYTRVSQYIEWLQKLMRSEPRPGVLLRAPFP

What was measured:
[1] = biological target: T1, Mesyl-dFPR-ACC
[2] = biological target: Factor X (Homo sapiens (Human)) (UniProt P00742)
[3] = biological target: Factor X (FX) (Homo sapiens (Human)) (UniProt P00742)
Chain of Factor X (FX) (Homo sapiens (Human)) (P00742 41-488 limits assumed): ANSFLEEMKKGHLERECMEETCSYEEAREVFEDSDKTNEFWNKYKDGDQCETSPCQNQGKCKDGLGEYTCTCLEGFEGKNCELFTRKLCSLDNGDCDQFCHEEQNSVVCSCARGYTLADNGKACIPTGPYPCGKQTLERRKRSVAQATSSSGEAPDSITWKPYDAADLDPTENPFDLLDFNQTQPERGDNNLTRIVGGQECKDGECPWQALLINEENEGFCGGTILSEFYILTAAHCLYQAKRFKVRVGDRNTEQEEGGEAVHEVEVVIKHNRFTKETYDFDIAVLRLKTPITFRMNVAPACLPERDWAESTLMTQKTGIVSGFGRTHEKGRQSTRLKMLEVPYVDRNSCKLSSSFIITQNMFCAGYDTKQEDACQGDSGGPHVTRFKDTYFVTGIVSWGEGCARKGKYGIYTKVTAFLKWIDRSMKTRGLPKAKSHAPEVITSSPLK

Activity (µmol/sec/µmol), specific activity for mesyl-dFPR-ACC (µmol/sec/µmol) [1] | kcat/KM (M^-1s^-1), TF-dependent assay [2] | kcat/KM, TF-independent assay [2] | kcat/KM, TF-dependent assay [2] [M⁻¹ s⁻¹] | kcat/KM, TF-Dependent Indirect Assay [3] [M⁻¹ s⁻¹] | Molecule
2.4 |  |  |  |  | WT FVIIa (enzyme)
1.16 | 2.08e+08 M⁻¹ s⁻¹ | 814 M⁻¹ s⁻¹ |  |  | {Gla swap FIX/E40L}/Q286R/M298Q-FVIIa (enzyme)
2.82 | 9.11e+07 M⁻¹ s⁻¹ | 90 M⁻¹ s⁻¹ |  |  | Gla swapFIX/Q366V-FVIIa (enzyme)
1.24 | 8.06e+07 M⁻¹ s⁻¹ | 10.3 M⁻¹ s⁻¹ |  |  | Q286R-FVIIa (enzyme)
1.92 | 2.84e+08 M⁻¹ s⁻¹ | 192 M⁻¹ s⁻¹ |  |  | Gla swap FIX/S222A/Q286R/M298Q/H373F-FVIIa (enzyme)
2.68 | 2.08e+07 M⁻¹ s⁻¹ |  |  |  | A122N/G124S/A175S/S222A-FVIIa (enzyme)
1.8 | 1.86e+08 M⁻¹ s⁻¹ and 1.5e+08 M⁻¹ s⁻¹ | 81.6 M⁻¹ s⁻¹ and 212 M⁻¹ s⁻¹ |  |  | T128N/P129A/Q286R/M298Q-FVIIa (enzyme)
1.95 | 3.56e+07 M⁻¹ s⁻¹ | 3.8 M⁻¹ s⁻¹ |  |  | S52A/S60A-FVIIa (enzyme)
0.67 | 1.25e+08 M⁻¹ s⁻¹ | 244 M⁻¹ s⁻¹ |  |  | Gla swap FIX/T239I/Q286R/M298Q-FVIIa (enzyme)
2.34 | 3.02e+07 M⁻¹ s⁻¹ | 3 M⁻¹ s⁻¹ |  |  | A122N/G124S/A175S/Q366V-FVIIa (enzyme)
1.53 | 2.55e+08 M⁻¹ s⁻¹ and 2.3e+08 M⁻¹ s⁻¹ | 673 M⁻¹ s⁻¹ and 678 M⁻¹ s⁻¹ |  |  | Gla swap FIX/Q286R/M298Q-FVIIa (enzyme)
2.31 | 6.91e+07 M⁻¹ s⁻¹ | 6.6 M⁻¹ s⁻¹ |  |  | T128N/P129A/Q286R/H373F-FVIIa (enzyme)
21.8 |  |  | 6.89e+07 |  | T128N/P129A/A175S/S222A/H257A/Q286R/M298Q-FVIIa (enzyme)
2.83 | 1.33e+08 M⁻¹ s⁻¹ | 30.7 M⁻¹ s⁻¹ |  |  | T128N/P129A/Q286R/M298Q/H373F-FVIIa (enzyme)
0.78 | 2.11e+08 M⁻¹ s⁻¹ and 1.99e+08 M⁻¹ s⁻¹ |  |  |  | Gla swap FIX/T128N/P129A/Q286R/M298Q-FVIIa (enzyme)
2.02 |  |  | 7.21e+07 |  | T128N/P129A/A175S/Q286R/M298Q-FVIIa (enzyme)
0.53 | 1.47e+08 M⁻¹ s⁻¹ and 1.43e+08 M⁻¹ s⁻¹ | 15.5 M⁻¹ s⁻¹ and 21.3 M⁻¹ s⁻¹ |  |  | Gla swap FIX/T128N/P129A/S222A/Q286R-FVIIa (enzyme)
1.66 | 1.55e+08 M⁻¹ s⁻¹ and 1.73e+08 M⁻¹ s⁻¹ |  |  |  | T128N/P129A/S222A/H257A/Q286R/M298Q-FVIIa (enzyme)
0.89 |  |  | 4.13e+07 |  | Gla swap FIX/A122N/G124S/A175S/S222A/Q286R-FVIIa (enzyme)
5.02 | 1.77e+08 M⁻¹ s⁻¹ | 63.3 M⁻¹ s⁻¹ |  |  | S52A/S60A/Q286R/M298Q/H373F-FVIIa (enzyme)
3.26 | 2.01e+08 M⁻¹ s⁻¹ | 1380 M⁻¹ s⁻¹ |  |  | T128N/P129A/V158D/E296V/M298Q-FVIIa (enzyme)
0.44 | 7.24e+07 M⁻¹ s⁻¹ | 2.9 M⁻¹ s⁻¹ |  |  | Gla swap FIX/S52A/S60A/S222A/Q286R-FVIIa (enzyme)
0.66 | 2.03e+08 M⁻¹ s⁻¹ and 9.94e+07 M⁻¹ s⁻¹ |  |  |  | Gla swap FIX/S222A/T239V/Q286R-FVIIa (enzyme)

Activity (µmol/sec/µmol), specific activity for mesyl-dFPR-ACC (µmol/sec/µmol) [1] | kcat/KM (M^-1s^-1), TF-dependent assay [2] | kcat/KM, TF-independent assay [2] | kcat/KM, TF-dependent assay [2] [M⁻¹ s⁻¹] | kcat/KM, TF-Dependent Indirect Assay [3] [M⁻¹ s⁻¹] | Molecule
0.98 | 2.49e+08 M⁻¹ s⁻¹ | 116 M⁻¹ s⁻¹ |  |  | S52A/S60A/S222A/H257A/Q286R/M298Q-FVIIa (enzyme)
1.26 | 1.41e+08 M⁻¹ s⁻¹ | 512 M⁻¹ s⁻¹ |  |  | {Gla swap FIX/M19K}/Q286R/M298Q-FVIIa (enzyme)
2.56 | 2e+08 M⁻¹ s⁻¹ | 1760 M⁻¹ s⁻¹ |  |  | S52A/S60A/V158D/E296V/M298Q-FVIIa (enzyme)
0.44 | 4.1e+07 M⁻¹ s⁻¹ |  |  |  | S52A/S60A/Q286R-FVIIa (enzyme)
2.78 |  |  | 5.72e+07 |  | T128N/P129A/A175S/Q286R/M298Q/H373F-FVIIa (enzyme)
2.7 | 6.25e+07 M⁻¹ s⁻¹ | 4.8 M⁻¹ s⁻¹ |  |  | T128N/P129A/S222A-FVIIa (enzyme)
0.25 | 6.77e+07 M⁻¹ s⁻¹ |  |  |  | GlaSwapFIX/S222A/T239I/Q286R-FVIIa (enzyme)
1.37 | 1.22e+08 M⁻¹ s⁻¹ | 81.2 M⁻¹ s⁻¹ |  |  | Gla swap FIX/S222A/Q286R/H373F-FVIIa (enzyme)
3.4 | 3.38e+07 M⁻¹ s⁻¹ | 3.4 M⁻¹ s⁻¹ |  |  | T128N/P129A/A175S/Q366V-FVIIa (enzyme)
1.63 | 5.38e+07 M⁻¹ s⁻¹ | 41.3 M⁻¹ s⁻¹ |  |  | Gla swap FIX-FVIIa (enzyme)
3.28 | 1.81e+08 M⁻¹ s⁻¹ and 1.65e+08 M⁻¹ s⁻¹ | 1220 M⁻¹ s⁻¹ and 984 M⁻¹ s⁻¹ |  |  | V158D/E296V/M298Q-FVIIa (enzyme)
2.31 |  |  |  |  | WT (NovoSeven®) FVIIa (enzyme)
3.19 | 1.72e+07 M⁻¹ s⁻¹ | 1.9 M⁻¹ s⁻¹ |  |  | T128N/P129A/A175S/S222A-FVIIa (enzyme)
1.22 | 3.91e+07 M⁻¹ s⁻¹ | 10.2 M⁻¹ s⁻¹ and 19.6 M⁻¹ s⁻¹ |  |  | S52A/S60A/S222A-FVIIa (enzyme)
2.71 |  |  | 8.39e+07 |  | A122N/G124S/A175S/Q286R/M298Q/H373F-FVIIa (enzyme)
1.08 | 1.25e+08 M⁻¹ s⁻¹ | 217 M⁻¹ s⁻¹ |  |  | S52A/S60A/Q286R/M298Q-FVIIa (enzyme)
1.2 | 2.73e+08 M⁻¹ s⁻¹ and 2.91e+08 M⁻¹ s⁻¹ | 902 M⁻¹ s⁻¹ and 794 M⁻¹ s⁻¹ |  |  | {Gla swap FIX/K43I}/Q286R/M298Q-FVIIa (enzyme)
1.21 | 8.45e+07 M⁻¹ s⁻¹ and 6.2e+07 M⁻¹ s⁻¹ | 8.7 M⁻¹ s⁻¹ and 10.5 M⁻¹ s⁻¹ |  |  | T128N/P129A/Q286R-FVIIa (enzyme)
2.16 | 4.11e+07 M⁻¹ s⁻¹ | 3 M⁻¹ s⁻¹ |  |  | A122N/G124S/A175S/Q286R-FVIIa (enzyme)
0.49 | 8.53e+07 M⁻¹ s⁻¹ |  |  |  | Gla swap FIX/Q286R/S222A/H257S-FVIIa (enzyme)
1.88 | 3.33e+07 M⁻¹ s⁻¹ | 3.3 M⁻¹ s⁻¹ |  |  | T128N/P129A/A175S/Q286R-FVIIa (enzyme)
 |  |  |  | 7.92e+07 | B1
